Experiments:
roseolovirus-6A = experiment: Antiviral activity against roseolovirus-6A in HSB-2 cells, viral DNA by real time PCR; format: cell-based, human; conditions: SI greater than 1 = active, FIGS. 1 and 2
Protocol: (§1) To evaluate the activity of the three tested RNases against human herpesviridae infections, the following quantitative PCR assay was used:
(§2) Solutions of the tested RNases were prepared in cell culture medium without use of dimethyl sulfoxide (“DMSO”). DMSO is unnecessary because the tested RNases are water-soluble.
Antiviral activity against roseolovirus-6B was evaluated in Molt-3 cells. The tested RNases were diluted using methods used for the CPE-inhibition assay in RPMI 1640 medium (Roswell Park Memorial Institute) supplemented with 10% FBS, L-glutamine, penicillin and gentamicin. 2×10^4 Molt-3 cells were added to each well, and infected cells were added to achieve the desired multiplicity of infection and incubated at 37° C. for 4 days. The accumulation of viral DNA was determined by real time PCR assays. Antiviral activity against roseolovirus-6A was evaluated by similar procedures, but using HSB-2 cells.
(§3) For all the assays, cytotoxicity was evaluated in the same cell line used to evaluate antiviral activity and was assessed by CellTiter-Glo assays.

human cytomegalovirus = experiment: Antiviral activity against human cytomegalovirus, CPE-inhibition assay in primary HFF cells with real time PCR readout; format: cell-based; conditions: primary human foreskin fibroblast (HFF) cells; SI greater than 1 = active; FIGS. 1 and 2
Protocol: as §1, §2
Antiviral activity against herpes simplex virus-1, herpes simplex virus-2, and human cytomegalovirus was evaluated by cytopathic effect inhibition (“CPE-inhibition”) assays in primary human foreskin fibroblast (HFF) cells. Primary HFF cells were counted and 2.5×10^4 cells per well were seeded into 96-well plates in 100 it of minimal essential medium supplemented with 10% fetal bovine serum (“FBS”). The cells were then incubated for 24 hours at 37° C. in a 5% CO2 humidified incubator. Solutions of the tested RNases were added to triplicate wells to yield a final concentration of 10 μM, and diluted to yield concentrations of 2, 0.4, 0.08, 0.016, and 0.0032 μM. The plates were then incubated for 1 h and 100 μl of a virus suspension was added. […] Total DNA from the cultures was harvested and viral genome copy number was determined by real time PCR assays.
as §3

B1: ranpirnase (protein, UniProt P22069 1-104, looked up)
Protein P-30: QDWLTFQKKHITNTRDVDCDNIMSTNLFHCKDKNTFIYSRPEPVKAICKGIIASKNVLTTSEFYLSDCNVTSRPCKYKLKKSTNKFCVTCENQAPVHFVGVGSC
notes: An RNase, disclosed and claimed in U.S. Pat. No. 5,559,212
B1 was tested, and the “activity against roseolovirus-6A (judged by SI = CC50/EC50)” value (roseolovirus-6A) was “entirely inactive” and the “activity against human cytomegalovirus (judged by SI = CC50/EC50)” value (human cytomegalovirus) was “extraordinarily active”.

Reference: patent publication US8518399B2, “Methods of treating infections originating from viruses in the herpesviridae family” (Tamir Biotechnology, Inc., priority 2010, dated 2013)
